Results from US20230348603A1 (VERSEAU THERAPEUTICS, published 2023).

What was measured:
[1] = biological target: T1, Human VSIG4-L-Fc (human); assay: ELISA, IgG 50 nM on coated antigen;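 note: Mouse-human chimeric IgG4 antibodies incubated 1 h on plate-coated VSIG4 proteins, bound IgG detected with HRP-labelled anti-human IgG, irrelevant antibody and protein as specificity controls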
T1 construct: also called hVSIG4-L-Fc; hVSIG4-L

[2] = biological target: T2, Human VSIG4-S-Fc (human); assay: ELISA, IgG 50 nM on coated antigen;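 note: Mouse-human chimeric IgG4 antibodies incubated 1 h on plate-coated VSIG4 proteins, bound IgG detected with HRP-labelled anti-human IgG, irrelevant antibody and protein as specificity controls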
T2 construct: short isoform ECD fused to human Fc1; also called hVSIG4-S

[3] = biological target: T3, Mouse VSIG4-His (mouse); assay: ELISA, IgG 50 nM on coated antigen;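 note: Mouse-human chimeric IgG4 antibodies incubated 1 h on plate-coated VSIG4 proteins, bound IgG detected with HRP-labelled anti-human IgG, irrelevant antibody and protein as specificity controls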
T3 construct: ECD with His tag; also called mVSIG4
T3 chain: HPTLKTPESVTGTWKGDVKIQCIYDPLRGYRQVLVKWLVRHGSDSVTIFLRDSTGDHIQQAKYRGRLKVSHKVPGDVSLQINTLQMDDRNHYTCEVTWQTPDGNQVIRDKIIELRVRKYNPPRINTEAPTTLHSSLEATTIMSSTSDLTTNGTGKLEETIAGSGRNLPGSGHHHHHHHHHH

[4] = biological target: T4, Cynomolgus Monkey VSIG4-L-His (cynomolgus monkey); assay: ELISA, IgG 50 nM on coated antigen;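 note: Mouse-human chimeric IgG4 antibodies incubated 1 h on plate-coated VSIG4 proteins, bound IgG detected with HRP-labelled anti-human IgG, irrelevant antibody and protein as specificity controls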
T4 construct: ECD with His tag; also called cyVSIG4-L; cyno VSIG4-L-His
T4 chain: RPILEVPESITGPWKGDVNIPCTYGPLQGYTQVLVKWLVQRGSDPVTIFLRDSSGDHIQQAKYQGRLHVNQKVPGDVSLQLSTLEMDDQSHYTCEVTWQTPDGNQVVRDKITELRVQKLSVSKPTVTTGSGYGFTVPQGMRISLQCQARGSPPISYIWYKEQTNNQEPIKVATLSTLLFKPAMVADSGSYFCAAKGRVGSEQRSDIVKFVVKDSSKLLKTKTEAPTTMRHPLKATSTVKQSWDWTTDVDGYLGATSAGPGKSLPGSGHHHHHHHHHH

[5] = biological target: T4, Cynomolgus Monkey VSIG4-L-His; assay: BLI (Octet), IgG on AHC sensor, antigen 100 nM
[6] = biological target: T5, Human VSIG4-S-His (human, UniProt Q9Y279 20-283); assay: BLI (Octet), IgG on AHC sensor, antigen 100 nM
T5 construct: short isoform ECD with His tag; also called hVSIG4-S; VISG4-S-His
T5 sequence: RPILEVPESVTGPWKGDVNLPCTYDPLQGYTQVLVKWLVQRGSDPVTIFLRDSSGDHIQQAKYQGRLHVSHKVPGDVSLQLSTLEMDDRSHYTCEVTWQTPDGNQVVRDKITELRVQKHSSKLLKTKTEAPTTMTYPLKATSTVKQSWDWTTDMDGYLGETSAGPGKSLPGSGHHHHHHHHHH

[7] = biological target: T6, Human VSIG4-L-His (human, UniProt Q9Y279 20-283); assay: BLI (Octet), IgG on AHC sensor, antigen 100 nM
T6 construct: long isoform ECD with His tag; also called hVSIG4-L
T6 sequence: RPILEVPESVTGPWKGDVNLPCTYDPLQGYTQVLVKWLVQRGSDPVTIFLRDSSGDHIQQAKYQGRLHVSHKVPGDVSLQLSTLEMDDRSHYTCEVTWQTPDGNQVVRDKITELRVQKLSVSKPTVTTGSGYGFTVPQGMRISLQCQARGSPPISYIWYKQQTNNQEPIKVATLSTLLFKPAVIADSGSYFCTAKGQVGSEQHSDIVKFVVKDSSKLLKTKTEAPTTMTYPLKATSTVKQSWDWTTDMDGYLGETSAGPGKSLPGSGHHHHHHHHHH

[8] = biological target: T4, Cynomolgus Monkey VSIG4-L-His; assay: SPR (FJB)
[9] = biological target: T6, Human VSIG4-L-His; assay: SPR (FJB)
[10] = biological target: T1, Human VSIG4-L-Fc; assay: BLI binning on hVSIG4-L-Fc, competitor 12A08 first;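 note: normalized to binding of second antibody without first competitor antibody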
[11] = biological target: T1, Human VSIG4-L-Fc; assay: ligand blocking of iC3b, IgG
[12] = biological target: T4, Cynomolgus Monkey VSIG4-L-His; assay: BLI, IgG on AHC sensor, antigen 100 nM
[13] = biological target: T6, Human VSIG4-L-His; assay: BLI, IgG on AHC sensor, antigen 100 nM
[14] = biological target: T1, Human VSIG4-L-Fc; assay: ligand blocking of C3b, IgG
[15] = biological target: T1, Human VSIG4-L-Fc; assay: BLI cross-blocking on hVSIG4-L-Fc, competitor 14C05 first
[16] = biological target: T7, Human VSIG4-L-CHO (human VSIG4 long isoform on CHO-K1 cells) (human, UniProt Q9Y279 20-399); assay: flow cytometry (FJB), 200 nM mAb, huVSIG4-L CHO-K1 over parental CHO-K1
T7 construct: also called hVSIG4-L (flow cytometry)
T7 sequence: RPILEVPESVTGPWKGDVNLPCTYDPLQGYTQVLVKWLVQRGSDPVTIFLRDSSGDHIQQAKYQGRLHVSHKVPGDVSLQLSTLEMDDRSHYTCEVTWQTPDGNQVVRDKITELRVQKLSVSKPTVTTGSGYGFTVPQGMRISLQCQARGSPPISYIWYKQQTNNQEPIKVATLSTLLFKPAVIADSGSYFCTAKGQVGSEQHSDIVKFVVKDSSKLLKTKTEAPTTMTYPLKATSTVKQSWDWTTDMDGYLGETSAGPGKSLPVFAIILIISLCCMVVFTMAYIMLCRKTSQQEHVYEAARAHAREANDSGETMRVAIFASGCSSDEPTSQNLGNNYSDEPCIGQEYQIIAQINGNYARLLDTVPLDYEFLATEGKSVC

[17] = biological target: T1, Human VSIG4-L-Fc; assay: BLI cross-blocking on hVSIG4-L-Fc, competitor 12A12 first
[18] = biological target: T1, Human VSIG4-L-Fc; assay: BLI binning on hVSIG4-L-Fc, competitor 16E03 first;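 note: normalized to binding of second antibody without first competitor antibody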
[19] = biological target: T1, Human VSIG4-L-Fc; assay: BLI binning on hVSIG4-L-Fc, competitor 12A12 first;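 note: normalized to binding of second antibody without first competitor antibody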
[20] = biological target: T1, Human VSIG4-L-Fc; assay: ligand competition ELISA (FJB), blocked ligand C3b
[21] = biological target: T1, Human VSIG4-L-Fc; assay: BLI binning on hVSIG4-L-Fc, competitor 13H11 first;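 note: normalized to binding of second antibody without first competitor antibody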

T2 sequence (chain, as listed by the source limits assumed): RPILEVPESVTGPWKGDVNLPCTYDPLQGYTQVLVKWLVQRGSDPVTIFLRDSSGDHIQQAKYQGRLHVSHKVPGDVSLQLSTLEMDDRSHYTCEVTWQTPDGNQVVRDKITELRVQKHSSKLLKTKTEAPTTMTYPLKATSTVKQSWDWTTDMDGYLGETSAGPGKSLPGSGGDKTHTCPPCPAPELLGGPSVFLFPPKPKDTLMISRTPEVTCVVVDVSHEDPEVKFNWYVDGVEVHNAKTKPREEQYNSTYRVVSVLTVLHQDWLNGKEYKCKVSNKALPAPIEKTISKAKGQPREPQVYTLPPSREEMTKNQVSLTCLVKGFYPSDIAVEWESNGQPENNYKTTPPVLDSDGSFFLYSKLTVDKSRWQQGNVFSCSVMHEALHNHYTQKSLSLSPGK

ELISA OD450 [1]: 4.45 OD450
ELISA OD450 [2]: 4.18 OD450
ELISA OD450 [3]: 0.054 OD450
ELISA OD450 [4]: 4.4 OD450
Kd [5]: 0.0195 µM
Kd [6]: 0.0158 µM
Kd [7]: 0.0191 µM
Kd [8]: 0.0068 µM
Kd [9]: 0.0086 µM
normalized maximum binding nm shift [10]: 0.86 normalized
Percent Blocking iC3b [11]: 98%
KD relative to parental chimera [12]: 1 fold
KD relative to parental chimera [13]: 1 fold
Percent Blocking C3b [14]: 96%
binding signal (nm shift) [15]: 0.72 nm
Binding (200 nM) Fold-Over-Parental [16]: 291 fold
binding signal (nm shift) [17]: 0.13 nm
normalized maximum binding nm shift [18]: 0.64 normalized
normalized maximum binding nm shift [19]: 0.13 normalized
IC50 [20]: 0.0009 µM
normalized maximum binding nm shift [21]: 0.74 normalized
B1: 12A12 mouse/human chimeric IgG4 (S228P) kappa (antibody, V domains shown)
VH: QVQMKQSGAELAKPGASVKMSCKASGYTFTNYWMHWVKQRPGQGLEWIGYINPSTGYTDYNQNFKDRATLTADKSSSTAYMQLSSLTSEDSAVYYCIRGSDYYGRDYWGQGTTLTVSS
VL: DIQMTQTTSSLSASLGDRVTISCRASQDISNYLNWYQQKPDGTLKLLIYYTSRLHSGVPSRFSGSGSGTDYSLTISNLEQEDIATYFCRQGNTLPWTFGGGTKLEIKR
